# Test results taken from patent US20230322924A1 (Janssen / Centocor, published 2023).
# Residue numbers refer to the chain shown, from its start.
# T1: chimpanzee PSMA, full length, on HEK293F cells (Pan troglodytes (chimpanzee))
# T1 construct: stably transfected HEK293F cells; also called chimp PSMA; chimp-PSMA HEK
# T1 chain: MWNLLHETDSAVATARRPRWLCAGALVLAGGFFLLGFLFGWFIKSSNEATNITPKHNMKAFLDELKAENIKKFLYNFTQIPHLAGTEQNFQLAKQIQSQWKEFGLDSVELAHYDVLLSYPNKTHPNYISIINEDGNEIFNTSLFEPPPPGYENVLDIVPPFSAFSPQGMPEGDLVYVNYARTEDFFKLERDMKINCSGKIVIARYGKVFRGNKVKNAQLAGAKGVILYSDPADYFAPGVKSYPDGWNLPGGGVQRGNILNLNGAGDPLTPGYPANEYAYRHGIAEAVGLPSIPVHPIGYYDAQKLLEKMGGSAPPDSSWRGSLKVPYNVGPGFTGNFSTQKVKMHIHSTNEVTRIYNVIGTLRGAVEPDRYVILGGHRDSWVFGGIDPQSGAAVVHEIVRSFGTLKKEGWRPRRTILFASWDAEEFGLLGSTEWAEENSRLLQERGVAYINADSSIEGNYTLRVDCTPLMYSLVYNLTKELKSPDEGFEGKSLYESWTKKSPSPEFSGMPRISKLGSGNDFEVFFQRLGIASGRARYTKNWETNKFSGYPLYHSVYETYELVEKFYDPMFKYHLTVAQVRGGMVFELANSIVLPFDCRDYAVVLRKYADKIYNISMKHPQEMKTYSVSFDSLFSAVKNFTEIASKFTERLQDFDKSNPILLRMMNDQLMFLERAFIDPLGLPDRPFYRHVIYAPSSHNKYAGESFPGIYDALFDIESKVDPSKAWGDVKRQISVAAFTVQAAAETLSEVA
# T2: Cynomolgous monkey PSMA, full length, on HEK293F cells (Macaca fascicularis (cynomolgus monkey))
# T2 construct: stably transfected HEK293F cells; also called cyno PSMA; Cyno-PSMA HEK
# T2 chain: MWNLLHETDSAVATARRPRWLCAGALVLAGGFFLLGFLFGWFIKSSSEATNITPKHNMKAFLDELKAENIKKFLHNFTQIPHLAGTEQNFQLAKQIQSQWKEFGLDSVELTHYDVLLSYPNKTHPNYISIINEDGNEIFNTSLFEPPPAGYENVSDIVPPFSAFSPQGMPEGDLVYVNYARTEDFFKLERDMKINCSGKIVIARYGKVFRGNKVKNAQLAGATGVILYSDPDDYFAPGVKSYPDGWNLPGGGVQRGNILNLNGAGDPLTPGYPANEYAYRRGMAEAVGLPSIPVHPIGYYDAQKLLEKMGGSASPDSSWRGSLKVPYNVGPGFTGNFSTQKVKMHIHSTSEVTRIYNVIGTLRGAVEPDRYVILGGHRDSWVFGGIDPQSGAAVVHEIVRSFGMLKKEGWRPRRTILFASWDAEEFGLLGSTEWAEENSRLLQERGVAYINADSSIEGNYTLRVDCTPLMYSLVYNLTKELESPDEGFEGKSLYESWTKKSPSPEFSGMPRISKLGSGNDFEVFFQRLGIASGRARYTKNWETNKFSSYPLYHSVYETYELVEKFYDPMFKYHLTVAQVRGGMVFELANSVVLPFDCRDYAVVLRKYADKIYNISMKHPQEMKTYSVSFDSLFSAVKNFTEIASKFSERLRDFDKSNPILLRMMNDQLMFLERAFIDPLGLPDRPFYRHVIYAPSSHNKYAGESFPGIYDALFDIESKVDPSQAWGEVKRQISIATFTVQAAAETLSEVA
# B1: C3CB11 (bispecific antibody, IgG4, V domains shown)
# VH 1: QVQLVESGGGVVQPGRSLRLSCVASGFTFSSYGMHWVRQAPGKGLEWVAVISYDGSNKYYADSVKGRFTISRDNSKNTLYLQMNSLRAEGTAVYYCAKDFRSFDWLPPDSASYHGMDVWGQGTTVTVSS
# VL 1: SYELTQPPSVSVSPGQTASITCSGDKLGDKYACWYQQKPGQSPVLVIYQDGKRPSGIPERFSGSNFGNKATLTISGTQAMDEADYYCQAWDRNTVVFGGGTKLTVL
# VH 2: EVQLVESGGGLVQPGGSLRLSCAASGFTFNTYAMNWVRQAPGKGLEWVARIRSKYNNYATYYAASVKGRFTISRDDSKNSLYLQMNSLKTEDTAVYYCARHGNFGNSYVSWFAYWGQGTLVTVSS
# VL 2: QTVVTQEPSLTVSPGGTVTLTCRSSTGAVTTSNYANWVQQKPGQAPRGLIGGTNKRAPGTPARFSGSLLGGKAALTLSGVQPEDEAEYYCALWYSNLWVFGGGTKLTVL
# B2: C3CB7 (bispecific antibody, IgG4, V domains shown)
# VH 1: QVQLVQSGSELRKPGASVKVSCKASGYTFTNYAMNWVRQAPGQGLEWMGWINTNTGNPTYAQGFTGRFVFSLDTSVSSAYLQISSLKAEDTAMYYCATDRDRGTDYWGQGTLVTVSS
# VL 1: QSALTQPASVSGSPGQSITISCTGTSSDVGDYNYVSWYQQHPGKVPKLMIYDVSNRPSGVSNRFSGSMSGNTASLTISGLQAEDEADYYCSSYSSSSALEVFGGGTKLTVL
# VH 2: B1 VH 2
# VL 2: B1 VL 2
# B3: C3CB12 (bispecific antibody, IgG4, V domains shown)
# VH 1: not shown
# VL 1: B1 VL 1 with D25N, D29A, Y31F, C33S, G51N, F66S, K69T, M80V, R92S, N93S
# VH 2: B1 VH 2
# VL 2: B1 VL 2
# B4: PSMB80 (Fab, V domains shown)
# VH: QVQLVQSGAEVKKPGSSVKVSCKASGGTFDDYAISWVRQAPGQGLEWMGRIDPIEGTANYAQKFQGRVTITADESTSTAYMELSSLRSEDTAVYYCARDRYYYDGVYWYSDYFDYWGQGTLVTVS
# VL: not shown
# notes: mammalian-expressed Fab supernatant (huG1 Fab and human kappa vectors); also called PSMM81
# B5: PSMB86 (Fab, V domains shown)
# VH: QVQLVQSGAEVKKPGSSVKVSCKASGGTFKSYDISWVRQAPGQGLEWMGGIIPIEGTANYAQKFQGRVTITADESTSTAYMELSSLRSEDTAVYYCARDYPAGYGFDYWGQGTLVTVSS
# VL: not shown
# notes: mammalian-expressed Fab supernatant (huG1 Fab and human kappa vectors); also called PSMM87
# B6: PSMB56 (Fab, V domains shown)
# VH: QVQLVQSGAEVKKPGSSVKVSCKASGGTFSSYAISWVRQAPGQGLEWMGWISPYNGNANYAQKFQGRVTITADESTSTAYMELSSLRSEDTAVYYCARDSDRSYNLDYWGQGTLVTVSS
# VL: not shown
# notes: mammalian-expressed Fab supernatant (huG1 Fab and human kappa vectors); also called PSMM57
# B7: PSMB51 (Fab, V domains shown)
# VH: QVQLVQSGAEVKKPGSSVKVSCKASGGTFSSYAISWVRQAPGQGLEWMGWIIPYNGNANYAQKFQGRVTITADESTSTAYMELSSLRSEDTAVYYCARVNSAALVWERLDYWGQGTLVTVSS
# VL: DIQMTQSPSSLSASVGDRVTITCRASQSIDRWLNWYQQKPGKAPKLLIYAASSLQSGVPSRFSGSGSGTDFTLTISSLQPEDFATYYCQQSPRYPLTFGQGTKVEIK
# notes: mammalian-expressed Fab supernatant (huG1 Fab and human kappa vectors); also called PSMM52
# B8: PSMB109 (Fab, V domains shown)
# VH: B7 VH with I52S
# VL: B7 VL
# notes: mammalian-expressed Fab supernatant (huG1 Fab and human kappa vectors); also called PSMM110
# B9: PSMB58 (Fab, V domains shown)
# VH: EVQLVQSGAEVKKPGESLKISCKGSGYSFTSYWISWVRQMPGKGLEWMGIIYPGDSYTRYSPSFQGQVTISADKSISTAYLQWSSLKASDTAMYYCARDYEWELFDSRLDYWGQGTLVTVSS
# VL: not shown
# notes: mammalian-expressed Fab supernatant (huG1 Fab and human kappa vectors); also called PSMM59
# B10: PSMB25 (Fab, V domains shown)
# VH: EVQLVQSGAEVKKPGESLKISCKGSGYSFTSYWIGWVRQMPGKGLEWMGIIYPGDSDTRYSPSFQGQVTISADKSISTAYLQWSSLKASDTAMYYCARGWAYDRGLDYWGQGTLVTVSS
# VL: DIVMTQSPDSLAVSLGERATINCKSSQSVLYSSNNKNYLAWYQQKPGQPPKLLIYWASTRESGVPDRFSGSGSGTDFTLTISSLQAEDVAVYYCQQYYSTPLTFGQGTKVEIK
# notes: mammalian-expressed Fab supernatant (huG1 Fab and human kappa vectors); also called PSMM25
# B11: PSMB49 (Fab, V domains shown)
# VH: QVQLVQSGAEVKKPGSSVKVSCKASGGTFSSYAISWVRQAPGQGLEWMGGIIPIFGTANYAQKFQGRVTITADESTSTAYMELSSLRSEDTAVYYCARASRVWHASYGYLDYWGQGTLVTVSS
# VL: EIVLTQSPATLSLSPGERATLSCRASQSVSKWLAWYQQKPGQAPRLLIYDASNRATGIPARFSGSGSGTDFTLTISSLEPEDFAVYYCQQRFTAPWTFGQGTKVEIK
# notes: mammalian-expressed Fab supernatant (huG1 Fab and human kappa vectors); also called PSMM50
# B12: PSMB55 (Fab, V domains shown)
# VH: EVQLVQSGAEVKKPGESLKISCKGSGYSFTSYWIGWVRQMPGKGLEWMGIIYPGDSDTRYSPSFQGQVTISADKSISTAYLQWSSLKASDTAMYYCARGLPIWYLDYWGQGTLVTVSS
# VL: B11 VL with S30A, K31S, W32D, D50F, R91S, F92I, A94W, W96F
# notes: mammalian-expressed Fab supernatant (huG1 Fab and human kappa vectors); also called PSMM56
# B13: PSMB84 (Fab, V domains shown)
# VH: EVQLLESGGGLVQPGGSLRLSCAASGFTFDSDWMSWVRQAPGKGLEWVSAISGNGGSTEYADSVKGRFTISRDNSKNTLYLQMNSLRAEDTAVYYCARDPYYYYDGDSYYGMDVWGQGTLVTVSS
# VL: not shown
# notes: mammalian-expressed Fab supernatant (huG1 Fab and human kappa vectors); also called PSMM85
# B14: PSMB18 (Fab, V domains shown)
# VH: B10 VH with G99A, W100Y, A101H, D103S, R104K
# VL: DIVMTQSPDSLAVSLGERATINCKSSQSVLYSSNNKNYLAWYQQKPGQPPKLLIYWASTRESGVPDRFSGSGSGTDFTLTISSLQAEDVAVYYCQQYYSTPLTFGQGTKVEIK
# notes: mammalian-expressed Fab supernatant (huG1 Fab and human kappa vectors); also called PSMM18
# Target: Human CD33 full length (human, UniProt P20138 18-364)
# Test: cell-based or functional assay
# Chain of Human CD33 full length (P20138 18-364 limits assumed): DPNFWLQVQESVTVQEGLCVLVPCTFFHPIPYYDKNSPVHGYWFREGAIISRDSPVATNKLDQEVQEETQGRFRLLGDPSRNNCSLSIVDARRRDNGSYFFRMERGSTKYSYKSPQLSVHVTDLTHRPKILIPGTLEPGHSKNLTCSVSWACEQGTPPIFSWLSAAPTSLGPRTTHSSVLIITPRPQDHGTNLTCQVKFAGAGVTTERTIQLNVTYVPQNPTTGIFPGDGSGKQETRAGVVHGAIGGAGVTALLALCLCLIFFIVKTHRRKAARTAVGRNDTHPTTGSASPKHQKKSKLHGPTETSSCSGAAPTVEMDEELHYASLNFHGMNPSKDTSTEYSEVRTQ
row,Binder,Primary AML Cell Killing EC50
1,B1,3.96 nM
2,B2,0.332 nM
3,B3,2.63 nM

# Target: T3, human PSMA on LNCaP cells (human, UniProt Q04609 1-750)
# T3 construct: PSMA of the LNCaP prostate cancer cell line itself
# Test: flow cytometry, Fab supernatant, LNCaP cells
# Protocol: (§1) A cell-based binding assay was designed to assess the binding capabilities of individual Fab-his fusions from E. coli supernatants to PSMA-expressing cells. Individual Fab clones were isolated from the round 3 output of all panning experiments following pIX excision. Fab clones were tested for binding to chimp and cyno PSMA expressing HEK cells, as well as to human PSMA on LNCaP cells. Briefly, PSMA expressing cells were aliquoted into a V-bottom plate (CoStar 3357) at a density of 200,000 per well and incubated with (100 μl) supernatants expressing Fab fragments for 1 hour on ice. Cells were washed twice with PBS containing 2% FBS, and stained with a mouse anti-human kappa-RPE antibody (Life Technologies cat #MH10514) for 1 hour on ice. Cells were washed twice with PBS containing 2% FBS and resuspended in […] of the same wash buffer. Plates were read on a BD FACS Array flow cytometer. FACS data was analyzed in FlowJo software by live gating the healthy population of cells using forward scatter and side scatter, and then analyzing the cells within this gate for PE staining. Mean fluorescence intensity (MFI) was calculated and exported into Microsoft Excel. […] Fabs were sequenced and moved forward for cloning into mammalian expression vector for rescreening. True positives were selected from the binding of mammalian cell expressed Fab supernatants to PSMA-expressing cell lines.
# (§2) Confirmation of mammalian expressed Fab supernatants was performed using the whole cell binding assay described previously. Binding of Fabs to human PSMA (LNCaP), chimpanzee, and cynomolgous monkey cells was tested, as well as counter screening for no binding to the parental HEK cell line.
# T3 sequence (Q04609 whole entry): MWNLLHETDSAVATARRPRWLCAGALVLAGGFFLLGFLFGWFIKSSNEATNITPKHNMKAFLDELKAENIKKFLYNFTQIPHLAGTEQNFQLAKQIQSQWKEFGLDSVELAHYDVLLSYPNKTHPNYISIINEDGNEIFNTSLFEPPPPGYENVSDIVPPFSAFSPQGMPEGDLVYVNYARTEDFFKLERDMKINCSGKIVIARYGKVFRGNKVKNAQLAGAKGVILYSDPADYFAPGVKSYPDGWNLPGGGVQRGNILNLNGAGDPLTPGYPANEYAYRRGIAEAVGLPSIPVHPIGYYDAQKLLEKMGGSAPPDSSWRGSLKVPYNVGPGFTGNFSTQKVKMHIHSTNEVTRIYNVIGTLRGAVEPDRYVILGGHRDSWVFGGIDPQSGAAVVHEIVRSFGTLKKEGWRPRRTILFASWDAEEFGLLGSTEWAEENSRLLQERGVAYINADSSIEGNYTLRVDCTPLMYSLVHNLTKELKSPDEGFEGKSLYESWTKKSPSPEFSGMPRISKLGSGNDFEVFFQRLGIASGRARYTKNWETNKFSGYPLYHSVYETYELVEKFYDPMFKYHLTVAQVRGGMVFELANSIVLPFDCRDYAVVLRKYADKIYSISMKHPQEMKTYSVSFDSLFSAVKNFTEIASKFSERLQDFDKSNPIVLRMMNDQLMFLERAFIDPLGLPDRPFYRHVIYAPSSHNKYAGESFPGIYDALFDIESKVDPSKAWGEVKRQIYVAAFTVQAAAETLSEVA
row,Binder,Geo-MFI
1,B4,20.9
2,B5,31.7
3,B6,24.5
4,B7,41.5
5,B8,34.9
6,B9,25.3
7,B10,16.9
8,B11,3.22
9,B12,17.2
10,B13,192

# Target: T1, chimpanzee PSMA, full length, on …
# Test: flow cytometry, Fab supernatant, chimp PSMA HEK cells
# Protocol: as §1, with “Individual” for “A cell-based binding assay was designed to assess the binding capabilities of individual Fab-his fusions from E. coli supernatants to PSMA-expressing cells. Individual”
# as §2
row,Binder,Geo-MFI
1,B4,18.6
2,B5,176
3,B6,34.7
4,B7,231
5,B8,326
6,B9,192
7,B14,439
8,B10,11.3
9,B11,22
10,B12,180
11,B13,729

# Target: T2, Cynomolgous monkey PSMA, full length, …
# Test: flow cytometry, Fab supernatant, cyno PSMA HEK cells
# Protocol: as §1, with “Individual” for “A cell-based binding assay was designed to assess the binding capabilities of individual Fab-his fusions from E. coli supernatants to PSMA-expressing cells. Individual”
# as §2
row,Binder,Geo-MFI
1,B4,19.6
2,B5,224
3,B6,95.6
4,B7,285
5,B8,321
6,B9,121
7,B14,696
8,B10,15.2
9,B11,51.6
10,B12,226
11,B13,750
